# Experimental data published in article PMC2836565.
# T1: Vts1 (Saccharomyces cerevisiae, UniProt Q08831 1-523)
# T1 sequence: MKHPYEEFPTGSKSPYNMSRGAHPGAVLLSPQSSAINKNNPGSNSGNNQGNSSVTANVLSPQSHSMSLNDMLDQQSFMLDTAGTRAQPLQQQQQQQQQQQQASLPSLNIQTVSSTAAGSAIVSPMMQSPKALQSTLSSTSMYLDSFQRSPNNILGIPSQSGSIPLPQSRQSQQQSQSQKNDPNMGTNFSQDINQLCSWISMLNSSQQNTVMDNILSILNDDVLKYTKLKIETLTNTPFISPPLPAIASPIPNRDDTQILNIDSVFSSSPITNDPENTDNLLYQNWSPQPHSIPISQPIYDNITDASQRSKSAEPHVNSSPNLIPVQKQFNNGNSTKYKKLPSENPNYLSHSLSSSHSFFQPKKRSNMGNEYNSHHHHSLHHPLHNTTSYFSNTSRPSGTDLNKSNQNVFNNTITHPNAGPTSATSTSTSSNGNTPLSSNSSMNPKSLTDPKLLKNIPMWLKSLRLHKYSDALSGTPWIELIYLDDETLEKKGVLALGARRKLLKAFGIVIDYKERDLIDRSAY
# T2: Vts1-A498Q (Saccharomyces cerevisiae, UniProt Q08831 1-523, A498Q)
# T2 sequence: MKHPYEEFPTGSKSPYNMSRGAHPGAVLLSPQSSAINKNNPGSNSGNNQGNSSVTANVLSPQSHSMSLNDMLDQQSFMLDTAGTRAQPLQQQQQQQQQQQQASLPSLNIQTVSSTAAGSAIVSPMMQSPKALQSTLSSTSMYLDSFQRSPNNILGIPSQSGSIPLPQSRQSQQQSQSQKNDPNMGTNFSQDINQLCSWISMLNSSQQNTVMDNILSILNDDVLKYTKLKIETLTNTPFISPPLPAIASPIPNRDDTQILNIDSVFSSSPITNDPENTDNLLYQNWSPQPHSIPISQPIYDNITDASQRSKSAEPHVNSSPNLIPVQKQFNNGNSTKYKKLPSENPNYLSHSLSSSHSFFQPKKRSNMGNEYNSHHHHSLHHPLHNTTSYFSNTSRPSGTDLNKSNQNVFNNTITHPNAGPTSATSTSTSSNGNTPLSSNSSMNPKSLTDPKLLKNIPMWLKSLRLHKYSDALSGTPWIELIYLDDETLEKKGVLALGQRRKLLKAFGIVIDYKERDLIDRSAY
# B1: dsDNA 50-bp (dsDNA)
# DNA 1: GAAAACATTATTAATGGCGTCGAGCTAGGCACAAGGCGAACTGCTAACGG
# DNA 2: CCGTTAGCAGTTCGCCTTGTGCCTAGCTCGACGCCATTAATAATGTTTTC
# What was measured:
# Vts1 [1] = molecular target: T1, Vts1; assay: competition
# Vts1-A498Q = molecular target: T2, Vts1-A498Q; assay: EMSA
# Vts1 [2] = molecular target: T1, Vts1; assay: EMSA
Binder,binding result (Vts1 [1]),binding result (Vts1-A498Q),binding result (Vts1 [2])
B1,binds,,
GCUCGAGGCUCUGGCAGCCUCGAGC (structured_RNA) [SRE-RNA],,no binding,binds
